Experimental data published in the domain aggregation screens of Martell et al. (2025).

Assay: soluble fraction after stress (log2 fold change); higher = more stays soluble; pooled small domains, quantitative proteomics
Settings: stress: 50 degC
In short: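 Custom libraries of small protein domains were pooled and measured in a high-throughput format, with quantitative proteomics as the read-out. Each library was stressed at 50°C. The value is the log2 fold change in the amount of each protein that stays soluble after stress, used as a measure of aggregation propensity; higher values mean more of the protein stays soluble.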

| Sequence | soluble fraction (log2) |
| --- | --- |
| HMAVVIPDVKGMTIEEAAPFLAEKGIRYNIIDSVFSKDVDPGAIVEIVPTPGSKVKEGRIVFVTINAK | -0.538 |
| HMAVVQMVDRPGGLDELLKDVVRAGVNFANAYGRTASDGNSAFFVIDIQDIPGARQKLADVGLQILADEAV | -0.192 |
| HMAWAVDVGVVGLFPGKAVLVIDGGAPRTVPVGANVGGVRLLAVDQGSATVEIGGKRQRLAIGQHAH | -0.402 |
| HMAWIGEHTVTSEDTLSHIALKFYGHATPPYYKLIYEANKAIIGDNMNIIVPGQVLRIPALPEEL | -0.345 |
| HMAYLTVPAVIAKDTKKSIQLLESKGFEVVIQDSIYTDTLARGTVIKQLPDPNATVKINRTVYLTVNRYTP | -2.1 |
| HMAYQQITIKANVVNVRQGPGLSYDVMSQANKGETMNVISQKNNWYQVRLSGDKIGWVASWLVDNT | -1 |
| HMAYWVVKNNQVSLQINRSNYQITSTARALSNGNLGDEIDVKVLQSGVIKKAVVIGKGQVELLR | -1.89 |
| HMDAHIGTLTPRERETLHHLAIGHSNKVIAKKLNLAESTVKAYVQSILRKLGLSSRVQAAVYAIQHDIR | -0.205 |
| HMDAIDPKTVTSWADLWKPEYKSSLLLTDDAREVFQMALRKLGYSGNTTDPKEIEAAYNELKKLMPNVAAF | -0.0387 |
| HMDAIDQDGNHMTFKRWGEQLQEAFQALEAYDTDKAKTILNELIKFPIDSDLNNALKGILSNIDEMMA | -0.447 |
| HMDAINITTYKGQITLTGTKTGTLVGIYNTAGMLVKSMMSKGEKLYFDNLPSGVYIIKVGEEEPRKVQVI | -0.165 |
| HMDAKIEYTMSDLIENRLINSDDASMRREKLSEILKIGYGNGKKTLHKLNSFGITREEFEEAMKEVNSH | 0.0697 |
| HMDAKIKDYADAYAKMDPQQAASLFNNMTTGSLDLVAKILENIPANKRAAILEKMDVNAAAQVTEKMR | 0.117 |
| HMDAKSRFQEWVQAETGITPTYRIIGDSGPDHAKTFIAQVLLGERVVGEGVGSSKRAAEQAAAQAALAAM | 0.186 |
| HMDAMMQRLERLKELASSADGSKDYLILGPLRRDLAKLMALEDPKLRQGAEELDRKILAILS | -0.208 |
| HMDAPHPSVVQVYFESRDRSWTYYNDRFDLHEGDLVYVEGKLEGVRGRVVEVSYNFRIKLADYKRVIAVA | -3.66 |
| HMDASSAVQFGSLLRDARRRQGLSQAELGGDKYSGSYISHLESGRRVATPEVIEFLSRRLGVSPLEWGVS | -0.0679 |
| HMDASSTGFLGKHVQIVGLVSQPHLNGRRGVASRFDSNRRRYLVRLDEIDGHAEVVAFRPDNLVLSNLL | -0.573 |
| HMDASVTIEQVERMVQANVSDDVIISQLQGRGAAQNLSTDDIINLTQKGISAEVIKAYQSAG | 0.0658 |
| HMDAVLMEYDRLLALELTEDPDVYQDLLDKVREQSLGADGRVTDKYREKFDAVATRFDDYEDNYQW | -0.52 |
| HMDAVQAGKRVLIVDDLIATGGTAKAATDLIEKAGGTVVGFSFVMRLDGLDGLDKLDGKPSSSLIAMP | 0.237 |
| HMDAYMGEAKDEETFAEEYLNDSGLLNEIPESVARYFDIVAYARDLLIGDFSLHDGHVFNMT | -0.0437 |
| HMDDAFLNKEMLKQALENLNEREKKLIYLRFYEGLTQKEIADRLSLSQMHVSRLLNESLNKLRRKI | -0.245 |

| Sequence | soluble fraction (log2) |
| --- | --- |
| HMDDATDLPYQEFRTQVSDGQVKIAQFNNNTGKITFESISGDKFKTSGPLELSSDDERLFLENIEDFKFFT | 0.104 |
| HMDDATDVPYQEFRTQVTSGQVEIAQFNNNTGKISFQSTSGEKFETSGPLELSSDDERLFLENIEDFKFFT | -0.0161 |
| HMDDATIKVNIAAKFLNAGNNLFVDIDTTVLEGRVLLTGLVDTQEVRIDAVRLVWEVEGIREVINEIEIG | -4.89 |
| HMDDATTQLADRLLDLRRKAGYSQEQLADLLGVSRQAISKWEGAQGRPEVDNVVKLAQIYRVSTDFILTGS | -0.552 |
| HMDDAVSHPDAGHIVTVTKVSADGTAEVMYRGASWRAKTADGSPLTAGSARIVRVDGAALVVEP | 0.052 |
| HMDDDDPDQEIAQYYEKLRAMNPDEETKQKLSDEINKLSKMMYSSQEAMVSRNYLDTVFSLPWHQF | -0.0959 |
| HMDDEELDALKGIPANEYTQEQIKQISEVFHTLQKNEVKDWLNSLQLRNIELPFELRNEVFSQ | 0.159 |
| HMDDFPLKRGSKGNRVTLLQNALVKKYGAGILPKYGVDGMFGKEVEAALVHAKIPTTINEANYTKIV | 0.0897 |
| HMDDFSETLLQYIKEKGGHISLNDKTDAGVIYETFGVSKKTFKKAVGDLYKKRLIVLEDTGIRL | -0.0801 |
| HMDDHLSFLAARLPDGASFDTDFDALGIDSFGMIALRAEVEERLGEQIADSDWTKVERPSEILAMLERK | -0.272 |
| HMDDLATAYKAMGVDASISDKDLKRAYRKLMSQHHPDKMIAKGVPADMVAMATEKTQEIQAAYDLIERSR | 0.127 |
| HMDDLIIQIELKQEGLEITGLKVLLKEDSVIDEQVKQTIRRKIERFLVNLYGNPNVYVSKFSMGI | -0.325 |
| HMDDLTTASIKQQLKALIDEENKNKPLSDQKLTDALKAQGIDISRRTVAKYREAMNIPGSSKRKRF | 0.0936 |
| HMDDMVLEIGPGIGTMTQYLAEAAGKVVAVEIDRNLLPILQETLADYDNVKVIHADVLSLDLEKLVQEE | -0.000883 |
| HMDDPDALITDSQLKAIHVLLGKLKIDDNLKHAYIADVLQLKDIPETLKTLTKHQGSTIIERLNLLIKDA | 0.0419 |
| HMDDPLSQLTPREREVLELMASGASNQGIADALVITVRAVEKYVSSIFGKLGLPSTGSESRRVLAVLTFLR | -0.635 |
| HMDDPYAGLRQRAYLFLRERDGAVPEEELIEHVFGSSGNPALWRPLLRQVLGADDRLDLRADGYWALRG | 0.118 |
| HMDDSPTARALRTLDLIHNRPGITAAELADRLGVTERAVRRYVLTLRDAGVPVLGTPGRYGGYQVGK | -0.426 |
| HMDDSVTFSEFVRMVDSGQVESVRITGNEVTGSDSTGNTFRTFVPPQYEGLVNRLVERDVAVTAEE | 0.0594 |
| HMDDSVVFSLNAKGIRLTGAGKYGEAIALFDKAIAAKPGLSGLYFNRAEARRLSGDLPGARSDLEQALAI | -0.453 |
| HMDDTRLELTLLGKIHNDEEINKQSHINVNIKNGVILLTGESPRREITERILTLARTFEHTRQIVNQIAT | 0.116 |
| HMDDVIDVYATYDKSAEGVLSNIQLFSNQKKTTPITPESGKIYIDVEGNYQFRWTGTQYATV | -0.111 |
| HMDDYRSLRGQEKAAIFLMSLSQEQAAKIFANLDDEEIKEISQAMSSLGTVGSEIIERLFVEFAEQVSS | -1.06 |

| Sequence | soluble fraction (log2) |
| --- | --- |
| HMDEARLAVASNLIRLRTDAGMTQAELGEKLNYSDKTISKWERAEAIPDAFVLKQIGELFHVSVDFLLRTH | -0.37 |
| HMDEDTWKLYKRAYKKYYARYMKGNMSEEAFKTWAAQAARDRDAAIEQVKAALDENLKAQVIERLKEELNR | -0.407 |
| HMDEEEKGEVEVPNLIGLTRKEAKKTLEEEGLLIETKESLKTNLDDEYEKIKSQLPKAGIKIKQGSTVYVD | 0.0917 |
| HMDEGQEHYVKETDLPFYSEADPASSVIFPLVLNQKLIEKERKDDWIRALEPTTGLVGWVLLKSLSPQQLS | 0.124 |
| HMDEIELLLQDAIQKLPEKQRMVFTLRYYDNLPYEEISKILDMSVSTLKTNYHYAKSKIEQYILDHS | -0.607 |
| HMDEKPPHEALSNREFQVLQLLAQGRSVGQIAQQLTLSANTISTYRARIFDKLGLHNPADLFSYAARHRLT | -0.273 |
| HMDELNFGNFEGTRIFVQRTARKKSIALSIRDGTIVILAPRHIPNQEIQELITTNTDWIRAKLSQHAETKR | -1.75 |
| HMDELVYVPNITGKTVEEARTELQKRDLGLNIAGHQFSDEFGKGRIISQDPAAGSRLKVNRSISVIVSSGQ | 0.206 |
| HMDENVVLRKVAREAFVIEYVRGIRAIDPGIGGPKLWLMYKREFGDNDTVGRDTFEDILDRNNLKVRI | -3.26 |
| HMDEPADVAIFDGFRQMSEDELKKLYESLNLAMTFKDFLHIQNYFKNEENREPSVTEIRVLDTYWSDH | 0.174 |
| HMDEPVDRLSPREQEVLALMAEGRSNAAIAHRLSITEKAVAKHINSIFTKLDLPLDEDDHRRVRAVLAWLR | -0.274 |
| HMDESIPVITYKDSVYANPKAFADAHKLPYKSLHNALSKARKEGKVRFMYKQYNFHLDNNGYIVAVS | 0.166 |
| HMDESLLDYALREIKARIQNGTYPPGTKLSTQEISDSLGISRTPVVAAINRLVAQGVAEAIPRRGTIVAR | 0.0188 |
| HMDETFTITFDPNGGTLNGSKTKTVSLGDIVYGKLPTASKTGYSFIGWFTEKEGGEQISSATKIIASDLTL | 0.0253 |
| HMDETPESIFAKANELYPKYIKYFYTEQEYYSKVEEYINLYEFQKNSTYILGKDLEEFLEEYITNKQ | -0.517 |
| HMDEWDDGDKPKLKITLYADDDYYFASGFSKSSVSLSGSDGTVTSVSRSSSDTLIVYVTLDALD | -0.0264 |
| HMDEYILTLDEVKELLKSKDYDDLKNVLKWSNKFQKDTIIQTAISEKVSDANVINIIKEITGQDITSLIV | 0.0322 |
| HMDEYTREQFVADMEEGRVREVTIHPNSEVPTGYIRVELANGADMKLYVTDIVEAEELVRSYGFDPPVRDV | 0.128 |
| HMDFDFHALGREIKRKRKDKGWTQEYLAQLLDRTPRSIMYMENRGQHPSLNILFKIATLLEISIDQFFF | 0.194 |
| HMDFDQELFDKIVEATMDEARAAMDTDDKNVREERWNKLIEHWHELFLEDYPEMDKYLEEITYKFQKNPAT | -0.302 |
| HMDFEVGTVKWFNTKKGYGFITRDQGEDIFVHFRNIKGQGRRSLSDGERVSFVVTHGDKGLQADQVSP | -1.38 |
| HMDFFTAAPEEDEIGKRIDVYIAEYKEELSRSRVQKLIENGLVTVNGKAVKSNYKLRKGDILEVEIPDPE | 0.0151 |
